From patent publication US20120027773A1 (AVEO PHARMACEUTICALS, published 2012)

Experiments:
[1] = target: T1, recombinant human RON SEMA and PSI domains (human, UniProt Q04912 25-571); assay: SPR, Ab captured on anti-human IgG Fc, 37 C, screening
T1 construct: domain: SEMA+PSI; Commercial protein (R&D Systems); also called rhRON SEMA+PSI; hRON SEMA+PSI
Method: (§1) Goat anti-human IgG Fc (Jackson ImmunoResearch, Catalog No. 109-005-098) was immobilized on carboxymethylated dextran CM4 sensor chips (Biacore) by amine coupling (Biacore) using a standard coupling protocol according to the vendor's instructions. The analyses were performed at 37° C. using PBS (Invitrogen) containing 0.05% surfactant P20 (Biacore) as running buffer.
(§2) The antibodies were captured in individual flow cells at a flow rate of 60 μl/minute. Injection time was varied for each antibody to yield an Rₘₐₓ between 30 and 60 RU. Buffer or rhRON SEMA+PSI diluted in running buffer was injected sequentially over a reference surface (no antibody captured) and the active surface (antibody to be tested) for 300 seconds at 60 μl/minute. The dissociation phase was monitored for up to 1200 seconds. The surface was then regenerated with two 60 second injections of Glycine pH 2.25 (made from Glycine pH 2.0 (Biacore) and pH 2.5 (Biacore)) at 60 μl/minute. For the initial screening, only one or two concentrations of rhRON SEMA+PSI were tested, typically 10.0 and 2.5 nM (results are summarized in Table 20).
Kinetic parameters were determined using the kinetic function of the BIAevaluation software (Biacore) with double reference subtraction. Kinetic parameters for each antibody, kₐ (association rate constant), kd (dissociation rate constant) and KD (equilibrium dissociation constant) were determined. Certain monoclonal antibodies were screened using cell culture media supernatant containing secreted antibody, and kinetic values of the monoclonal antibodies on rhRON SEMA+PSI at 37° C. are summarized in Table 20.

[2] = target: T1, recombinant human RON SEMA and PSI …; assay: SPR, purified Ab captured on anti-human IgG Fc, 25 C
[3] = target: T1, recombinant human RON SEMA and PSI …; assay: SPR, Ab captured on anti-human IgG Fc, 37 C
[4] = target: T1, recombinant human RON SEMA and PSI …; assay: SPR, purified Ab captured on anti-human IgG Fc, 37 C
Method: as §1, §2
The binding affinities and kinetics of certain purified monoclonal antibodies were also determined. To further characterize certain antibodies, the surface plasmon resonance experiments described above were conducted using concentrations of rhRON SEMA+PSI between 0.3125 nM and 10.0 nM (a 2-fold serial dilution).

[5] = target: T2, human wild-type RON (cell surface) (human, UniProt Q04912 25-1400); assay: FACS titration on PC3 cells, 4 C
T2 construct: whole, on cells; also called Human RON; wt RON
Method: (§3) Binding to cell surface human wild-type RON and the delta 160 RON variant by antibodies 07F01, Sh07F01-62, 29B06, and Sh29B06-78 was measured at 4° C., using Fluorescence Activated Cell Sorting (FACS). PC3 cells expressing the human wild-type RON, and HT29 cells expressing the delta 160 variant, were harvested using cell dissociation buffer (Invitrogen), washed twice with FACS buffer (PBS with 0.5% BSA), and treated 10 minutes with Cyto Q Antibody diluent and FC receptor block (Innovex Biosciences, Richmond, Calif.). Purified antibodies were diluted in FACS buffer over a concentration range from 0.01 nM to 25 nM. Cells were incubated with 100 μl of antibody for one hour, washed with FACS buffer three times, and incubated for 45 minutes with goat anti-mouse PE-conjugated antibody (Jackson ImmunoResearch Laboratories, West Grove, Pa.) or donkey anti-human PE-conjugated antibody (Jackson ImmunoResearch Laboratories, West Grove, Pa.). Cells were washed three times with FACS buffer, resuspended in 300 μl of FACS buffer, and analyzed using a Beckman Coulter Cytomics FC 500 FACS instrument. All four antibodies were compared in the same experiment.

[6] = target: T3, delta 160 RON variant (cell surface) (human, UniProt Q04912 25-1400); assay: FACS titration on HT29 cells, 4 C
T3 construct: whole, on cells; Splice variant; also called delta 160 variant
Method: as §3

[7] = target: T1, recombinant human RON SEMA and PSI …; assay: SPR, Ab captured on anti-human IgG Fc, 25 C

Binder | Kd [1] [nM] | koff [1] [s⁻¹] | kon [1] [M⁻¹ s⁻¹] | Kd [2] [nM] | koff [2] [s⁻¹] | kon [2] [M⁻¹ s⁻¹] | Kd [3] [nM] | koff [3] [s⁻¹] | kon [3] [M⁻¹ s⁻¹] | Kd [4] [nM] | koff [4] [s⁻¹] | kon [4] [M⁻¹ s⁻¹] | Kd [5] [nM] | Kd [6] [nM] | Kd [7] [nM] | koff [7] [s⁻¹] | kon [7] [M⁻¹ s⁻¹]
Sh07F01-62 (antibody, human IgG1, kappa, V domains shown, Humanized, human IgG1/kappa: Sh07F01 Hv3-48 D28T T60A L63V E65G IgG1 + HE L 07F01 Kv1-9 Kappa) VH: EVQLVESGGGLVQPGGSLRLSCAASGFTFSRHWMSWVRQAPGKGLEWVSEINPDSRTINYAPSVKGRFTISRDNAKNSLYLQMNSLRAEDTAVYYCARRVRIHYYGAMDSWGQGTTVTVSS VL: DIQLTQSQSFVSTSVGDRVTVTCRASQNVGSSLVWYQQKPGKSPKTLIYSASFLYSGVPSRFSGSGSGTEFTLTISSVQPEDFADYFCQQYNNYPLTFGGGTKVEIKR | 0.36 | 0.0014 | 3.9e+06 | 0.085 | 0.00016 | 1.8e+06 | 0.25 | 0.00069 | 2.8e+06 | 0.25 | 0.00069 | 2.8e+06 | 0.043 | 0.118 | 0.085 | 0.00016 | 1.8e+06
Sh07F01-69 (antibody, human IgG1, kappa, V domains shown, Humanized, human IgG1/kappa: Sh07F01 Hv3-48 IgG1 + Sh07F01 Kv1-9 F1 Kappa) VH: EVQLVESGGGLVQPGGSLRLSCAASGFDFSRHWMSWVRQAPGKGLEWVSEINPDSRTINYTPSLKERFTISRDNAKNSLYLQMNSLRAEDTAVYYCARRVRIHYYGAMDSWGQGTTVTVSS VL: DIQLTQSPSFLSASVGDRVTITCRASQNVGSSLVWYQQKPGKAPKTLIYSASFLYSGVPSRFSGSGSGTEFTLTISSLQPEDFATYYCQQYNNYPLTFGGGTKVEIKR | 0.56 | 0.0012 | 2.3e+06 | 0.12 | 0.00014 | 1.1e+06 | – | – | – | 0.3 | 0.00078 | 2.5e+06 | – | – | – | – | –
Sh07F01-43 (antibody, human IgG1, kappa, V domains shown, Humanized, human IgG1/kappa: Sh07F01 Hv3-48 IgG1 + HE L 07F01 Kv1-9 Kappa) VH: EVQLVESGGGLVQPGGSLRLSCAASGFDFSRHWMSWVRQAPGKGLEWVSEINPDSRTINYTPSLKERFTISRDNAKNSLYLQMNSLRAEDTAVYYCARRVRIHYYGAMDSWGQGTTVTVSS VL: DIQLTQSQSFVSTSVGDRVTVTCRASQNVGSSLVWYQQKPGKSPKTLIYSASFLYSGVPSRFSGSGSGTEFTLTISSVQPEDFADYFCQQYNNYPLTFGGGTKVEIKR | – | – | – | 0.09 | 0.00011 | 1.2e+06 | – | – | – | 0.3 | 0.00056 | 1.8e+06 | – | – | – | – | –
Sh07F01-83 (antibody, human IgG1, kappa, V domains shown, Humanized, human IgG1/kappa: Sh07F01 Hv3-48 D28T T60A L63V E65G IgG1 + Sh07F01 Kv1-9 F1 Kappa) VH: EVQLVESGGGLVQPGGSLRLSCAASGFTFSRHWMSWVRQAPGKGLEWVSEINPDSRTINYAPSVKGRFTISRDNAKNSLYLQMNSLRAEDTAVYYCARRVRIHYYGAMDSWGQGTTVTVSS VL: DIQLTQSPSFLSASVGDRVTITCRASQNVGSSLVWYQQKPGKAPKTLIYSASFLYSGVPSRFSGSGSGTEFTLTISSLQPEDFATYYCQQYNNYPLTFGGGTKVEIKR | 0.54 | 0.0014 | 2.6e+06 | 0.11 | 0.00018 | 1.6e+06 | – | – | – | 0.24 | 0.00079 | 3.2e+06 | – | – | – | – | –
RON8 (antibody, V domains shown) VH: EVQLVESGGGLVQPGGSLRLSCAASGFTFSSYLMTWVRQAPGKGLEWVANIKQDGSEKYYVDSVKGRFTISRDNAKNSLNLQMNSLRAEDTAVYYCTRDGYSSGRHYGMDVWGQGTTVIVSS VL: EIVLTQSPATLSLSPGERATLSCRASQSVSRYLAWYQQKPGQAPRLLIYDASNRATGIPARFSGSGSGTDFTLTISSLEPEDFAVYYCQQRSNWPRTFGQGTKVEIKR | – | – | – | – | – | – | 0.92 | 0.0025 | 7e+06 | – | – | – | – | – | 0.67 | 0.00068 | 1.2e+06
Sh29B06-9 (antibody, human IgG1, kappa, V domains shown, Chimeric 29B06 Heavy IgG1 + Sh29B06 Kv2-28 Kappa) VH: EVQLQESGPSLVKPSQTLSLTCSVTGDSITSGYWNWIRKFPGNKLEYMGYISYSGKTYYNPSLKSRISITRDTSKNHYYLQLISVTAEDTATYYCARSKYDYAMDYWGQGTSVTVSS VL: DIVMTQSPLSLPVTPGEPASISCRASEIVDNFGISFMNWYLQKPGQSPQLLIYAASNQGSGVPDRFSGSGSGTDFTLKISRVEAEDVGVYYCQQSKEVPPTFGGGTKVEIKR | 0.26 | 0.00022 | 870000 | – | – | – | – | – | – | – | – | – | – | – | – | – | –
Sh29B06-78 (antibody, human IgG1, kappa, V domains shown, Humanized, human IgG1/kappa: Hu29B06 Hv4-59 D27G T30S M48I I67V Y78F IgG1 + Sh29B06 Kv2-28 Kappa) VH: QVQLQESGPGLVKPSETLSLTCTVSGGSISSGYWNWIRKPPGKKLEYIGYISYSGKTYYNPSLKSRVTISRDTSKNQFSLKLSSVTAADTAVYYCARSKYDYAMDYWGQGTLVTVSS VL: DIVMTQSPLSLPVTPGEPASISCRASEIVDNFGISFMNWYLQKPGQSPQLLIYAASNQGSGVPDRFSGSGSGTDFTLKISRVEAEDVGVYYCQQSKEVPPTFGGGTKVEIKR | – | – | – | 0.052 | 3.9e-05 | 750000 | 0.11 | 0.0001 | 960000 | 0.11 | 0.00011 | 1e+06 | 0.09 | 0.239 | 0.048 | 3.1e-05 | 680000
Sh29B06-23 (antibody, human IgG1, kappa, V domains shown, Humanized, human IgG1/kappa: Hu29B06 Hv4-59 IgG1 (CDR graft with back mutations) + Sh29B06 Kv2-28 Kappa) VH: QVQLQESGPGLVKPSETLSLTCTVSGDSITSGYWNWIRKPPGKKLEYMGYISYSGKTYYNPSLKSRITISRDTSKNQYSLKLSSVTAADTAVYYCARSKYDYAMDYWGQGTLVTVSS VL: DIVMTQSPLSLPVTPGEPASISCRASEIVDNFGISFMNWYLQKPGQSPQLLIYAASNQGSGVPDRFSGSGSGTDFTLKISRVEAEDVGVYYCQQSKEVPPTFGGGTKVEIKR | 0.64 | 0.00048 | 780000 | 0.14 | 9.5e-05 | 670000 | – | – | – | 0.46 | 0.00033 | 730000 | – | – | – | – | –
Sh07F01-2 (antibody, human IgG1, kappa, V domains shown, also called Chimeric 07F01 C102S) VH: EVKLLESGGGLVQPGGSLKLSCAASGFDFSRHWMSWVRLAPGKGLEWIAEINPDSRTINYTPSLKEKFIISRDNAKNSLFLQMNRVRSEDTALYYCARRVRIHYYGAMDSWGQGTSVTVSS VL: DIVLTQSQKIVSTSVGARVSVTCKASQNVGSSLVWYQQKPGQSPKTLIYSASFRYSGVPDRFTGSGSGTDFTLTISNVQSEDLADYFCQQYNNYPLTFGAGTKLELKR | 0.38 | 0.00073 | 2e+06 | 0.082 | 9.8e-05 | 1.2e+06 | – | – | – | 0.31 | 0.00053 | 1.7e+06 | – | – | – | – | –
